Targets include human RXFP2 (human) (UniProt Q8WXD0); human RXFP4 (human) (UniProt Q8TDU9); human RXFP3 (human) (UniProt Q9NSD7).
Common to all, as to experiment: cell-based or functional assay

Chain of human RXFP4 (human) (Q8TDU9 whole entry): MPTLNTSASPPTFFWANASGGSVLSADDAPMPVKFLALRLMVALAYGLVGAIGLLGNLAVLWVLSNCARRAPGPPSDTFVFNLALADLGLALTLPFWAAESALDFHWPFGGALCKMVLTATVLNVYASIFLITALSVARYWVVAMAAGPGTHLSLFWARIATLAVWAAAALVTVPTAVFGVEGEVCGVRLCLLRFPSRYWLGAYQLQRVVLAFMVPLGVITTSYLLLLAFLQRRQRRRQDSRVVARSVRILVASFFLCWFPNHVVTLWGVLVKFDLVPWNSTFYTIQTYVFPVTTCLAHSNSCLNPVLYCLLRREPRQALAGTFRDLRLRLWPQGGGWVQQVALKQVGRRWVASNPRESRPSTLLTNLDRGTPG
Chain of human RXFP2 (human) (Q8WXD0 whole entry): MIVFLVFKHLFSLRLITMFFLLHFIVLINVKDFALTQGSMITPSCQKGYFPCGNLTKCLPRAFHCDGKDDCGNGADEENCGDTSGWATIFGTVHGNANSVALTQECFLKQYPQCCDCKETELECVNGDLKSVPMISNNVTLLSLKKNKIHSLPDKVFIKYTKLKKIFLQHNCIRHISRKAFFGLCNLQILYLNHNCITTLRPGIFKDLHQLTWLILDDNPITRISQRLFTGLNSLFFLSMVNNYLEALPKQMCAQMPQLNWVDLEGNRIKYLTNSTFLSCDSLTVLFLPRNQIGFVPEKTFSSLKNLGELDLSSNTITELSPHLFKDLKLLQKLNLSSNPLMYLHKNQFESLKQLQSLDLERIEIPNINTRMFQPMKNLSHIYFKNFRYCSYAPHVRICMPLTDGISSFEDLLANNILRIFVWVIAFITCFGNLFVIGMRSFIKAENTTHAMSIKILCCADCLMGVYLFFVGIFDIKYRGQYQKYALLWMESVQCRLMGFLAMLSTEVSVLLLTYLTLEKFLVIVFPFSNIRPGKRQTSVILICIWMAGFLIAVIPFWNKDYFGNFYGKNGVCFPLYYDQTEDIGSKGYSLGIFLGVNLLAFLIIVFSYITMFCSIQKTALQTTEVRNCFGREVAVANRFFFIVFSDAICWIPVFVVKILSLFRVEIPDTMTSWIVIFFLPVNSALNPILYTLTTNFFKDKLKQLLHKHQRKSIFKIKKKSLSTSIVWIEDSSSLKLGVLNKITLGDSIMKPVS
Chain of human RXFP3 (human) (Q9NSD7 whole entry): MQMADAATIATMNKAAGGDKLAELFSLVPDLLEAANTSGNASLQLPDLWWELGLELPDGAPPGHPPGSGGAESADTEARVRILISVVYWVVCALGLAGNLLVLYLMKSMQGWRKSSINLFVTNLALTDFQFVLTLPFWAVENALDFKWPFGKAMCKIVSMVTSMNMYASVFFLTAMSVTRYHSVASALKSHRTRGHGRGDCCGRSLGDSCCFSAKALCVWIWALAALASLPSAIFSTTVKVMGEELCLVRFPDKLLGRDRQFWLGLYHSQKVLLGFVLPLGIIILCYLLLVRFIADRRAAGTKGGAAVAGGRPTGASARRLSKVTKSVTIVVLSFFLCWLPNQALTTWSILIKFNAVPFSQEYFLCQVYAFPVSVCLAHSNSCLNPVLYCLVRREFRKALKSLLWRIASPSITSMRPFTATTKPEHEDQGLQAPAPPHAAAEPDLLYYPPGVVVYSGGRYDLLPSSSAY

Consider “insulin like 3 protein (INSL3) (from UniProt P51460 21-131) (ligand)”, for which the cAMP Assay EC50 (nM), human RXFP2/CHO-K1 cells with human RXFP2 (human) worked out at 0.46 nM.

Take “recombinant human relaxin 3 (H3-RLX) (from UniProt Q8WXF3 26-142) (ligand)”: in the test with human RXFP4 (human), the cAMP Assay EC50 (nM), inhibition of forskolin-induced cAMP, human RXFP4/CHO-K1 cells is 2.8 nM and the maximal inhibition of forskolin-induced cAMP, human RXFP4/CHO-K1 cells was found to be 40%. Besides, the cAMP Assay EC50 (nM), inhibition of forskolin-induced cAMP, human RXFP3/CHO-K1 cells with human RXFP3 (human) is 0.6 nM.

The values above are taken from US20240189392A1.
